What all share (conditions): modification not given
Experiment [1] has as its target T1, PC2, P16519.
T1 chain: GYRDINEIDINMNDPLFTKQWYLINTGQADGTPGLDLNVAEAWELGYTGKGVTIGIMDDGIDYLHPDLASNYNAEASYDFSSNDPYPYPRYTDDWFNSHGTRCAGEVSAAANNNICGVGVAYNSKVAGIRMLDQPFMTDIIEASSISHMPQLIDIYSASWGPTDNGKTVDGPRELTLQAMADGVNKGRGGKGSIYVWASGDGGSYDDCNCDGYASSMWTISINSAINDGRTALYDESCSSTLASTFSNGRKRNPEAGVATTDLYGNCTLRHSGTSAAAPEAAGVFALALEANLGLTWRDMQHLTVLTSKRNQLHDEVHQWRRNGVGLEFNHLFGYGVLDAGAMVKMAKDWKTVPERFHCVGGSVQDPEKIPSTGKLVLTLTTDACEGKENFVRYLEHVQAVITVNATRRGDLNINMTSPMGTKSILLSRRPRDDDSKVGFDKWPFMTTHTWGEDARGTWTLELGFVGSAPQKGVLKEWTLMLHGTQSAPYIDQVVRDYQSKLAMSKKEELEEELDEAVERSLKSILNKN

Experiment [2] addresses T2, Furin (recombinant, truncated) (mouse), P23188.
T2 chain: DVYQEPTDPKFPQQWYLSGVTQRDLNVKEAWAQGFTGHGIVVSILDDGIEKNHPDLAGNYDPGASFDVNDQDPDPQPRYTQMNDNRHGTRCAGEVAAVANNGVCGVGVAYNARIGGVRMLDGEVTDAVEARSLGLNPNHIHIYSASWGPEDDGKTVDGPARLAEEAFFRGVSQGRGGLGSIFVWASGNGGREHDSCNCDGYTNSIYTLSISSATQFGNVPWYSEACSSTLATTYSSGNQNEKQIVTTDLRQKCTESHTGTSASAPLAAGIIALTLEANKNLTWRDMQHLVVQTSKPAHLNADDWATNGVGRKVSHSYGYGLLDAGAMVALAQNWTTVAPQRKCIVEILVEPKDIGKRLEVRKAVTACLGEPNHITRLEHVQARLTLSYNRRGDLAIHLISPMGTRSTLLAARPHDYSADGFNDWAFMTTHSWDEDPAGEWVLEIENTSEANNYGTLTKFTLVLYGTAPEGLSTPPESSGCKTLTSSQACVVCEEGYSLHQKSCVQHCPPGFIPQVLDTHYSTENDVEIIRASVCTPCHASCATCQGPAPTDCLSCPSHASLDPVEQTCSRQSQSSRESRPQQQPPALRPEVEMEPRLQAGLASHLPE

For experiment [3], the target named is T2, Furin (recombinant, truncated) (mouse), ….
For experiment [4], the target named is T1, PC2, P16519.
Experiment [5] addresses T3, PC7, Q16549.
T3 chain: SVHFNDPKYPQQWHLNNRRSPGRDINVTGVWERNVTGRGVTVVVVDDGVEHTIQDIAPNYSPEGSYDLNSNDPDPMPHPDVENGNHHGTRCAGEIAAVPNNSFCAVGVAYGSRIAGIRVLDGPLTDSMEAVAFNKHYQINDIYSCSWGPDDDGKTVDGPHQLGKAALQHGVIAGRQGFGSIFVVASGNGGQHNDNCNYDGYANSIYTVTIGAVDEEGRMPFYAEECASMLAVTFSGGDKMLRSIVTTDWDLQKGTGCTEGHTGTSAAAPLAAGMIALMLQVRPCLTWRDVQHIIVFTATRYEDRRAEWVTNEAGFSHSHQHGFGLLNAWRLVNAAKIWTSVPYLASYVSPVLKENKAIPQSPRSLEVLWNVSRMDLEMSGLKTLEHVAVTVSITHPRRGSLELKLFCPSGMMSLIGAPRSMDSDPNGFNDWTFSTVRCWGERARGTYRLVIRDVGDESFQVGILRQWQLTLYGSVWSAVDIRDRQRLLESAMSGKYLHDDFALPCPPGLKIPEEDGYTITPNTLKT

In experiment [6] the target is T2, Furin (recombinant, truncated) (mouse), ….
The target of experiment [7] is T1, PC2, P16519.
Experiment [8] has as its target T4, PC1, P29120.
T4 chain: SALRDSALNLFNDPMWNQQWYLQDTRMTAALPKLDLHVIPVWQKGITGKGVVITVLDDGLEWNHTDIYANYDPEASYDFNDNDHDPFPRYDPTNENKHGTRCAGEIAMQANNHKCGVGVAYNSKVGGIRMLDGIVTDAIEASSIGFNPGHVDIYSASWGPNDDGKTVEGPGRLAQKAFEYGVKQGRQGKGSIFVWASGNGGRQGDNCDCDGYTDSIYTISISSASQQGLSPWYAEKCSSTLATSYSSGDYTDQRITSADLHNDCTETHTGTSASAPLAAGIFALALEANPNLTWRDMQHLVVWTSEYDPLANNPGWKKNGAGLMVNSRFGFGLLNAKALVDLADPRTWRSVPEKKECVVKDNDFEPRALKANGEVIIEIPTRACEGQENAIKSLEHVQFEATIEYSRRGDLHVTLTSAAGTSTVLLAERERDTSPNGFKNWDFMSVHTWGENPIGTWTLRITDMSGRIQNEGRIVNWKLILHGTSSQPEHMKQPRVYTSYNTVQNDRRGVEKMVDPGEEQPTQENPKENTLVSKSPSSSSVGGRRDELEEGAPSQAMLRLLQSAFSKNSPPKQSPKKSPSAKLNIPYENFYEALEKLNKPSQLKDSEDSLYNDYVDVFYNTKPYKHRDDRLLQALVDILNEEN

For experiment [9], the target named is T2, Furin (recombinant, truncated) (mouse), ….
The target in experiment [10] is T5, PACE4, P29122.
T5 chain: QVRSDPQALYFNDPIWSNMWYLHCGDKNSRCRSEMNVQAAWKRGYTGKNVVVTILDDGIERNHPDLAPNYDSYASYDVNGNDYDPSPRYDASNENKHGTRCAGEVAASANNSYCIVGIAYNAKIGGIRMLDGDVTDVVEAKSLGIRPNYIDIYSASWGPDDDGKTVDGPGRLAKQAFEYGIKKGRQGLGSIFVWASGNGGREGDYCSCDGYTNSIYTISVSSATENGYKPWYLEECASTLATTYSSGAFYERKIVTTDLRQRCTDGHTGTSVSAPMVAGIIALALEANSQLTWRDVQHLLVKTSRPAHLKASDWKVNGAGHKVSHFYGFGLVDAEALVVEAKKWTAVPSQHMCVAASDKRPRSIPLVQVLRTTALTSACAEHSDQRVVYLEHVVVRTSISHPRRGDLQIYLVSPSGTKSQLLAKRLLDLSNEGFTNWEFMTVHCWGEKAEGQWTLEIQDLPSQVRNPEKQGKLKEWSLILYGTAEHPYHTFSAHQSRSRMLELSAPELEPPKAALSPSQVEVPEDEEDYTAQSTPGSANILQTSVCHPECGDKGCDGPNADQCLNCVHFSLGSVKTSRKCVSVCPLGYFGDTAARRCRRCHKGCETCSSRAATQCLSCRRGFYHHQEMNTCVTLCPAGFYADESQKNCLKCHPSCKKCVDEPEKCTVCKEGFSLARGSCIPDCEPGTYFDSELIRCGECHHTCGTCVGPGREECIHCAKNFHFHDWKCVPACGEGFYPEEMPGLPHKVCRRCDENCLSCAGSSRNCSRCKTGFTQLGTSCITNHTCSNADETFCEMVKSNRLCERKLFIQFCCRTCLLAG

The target of experiment [11] is T2, Furin (recombinant, truncated) (mouse), ….
Experiment [12] deals with T1, PC2, P16519.
Experiment [13] addresses T2, Furin (recombinant, truncated) (mouse), ….
Experiment [14] deals with T4, PC1, P29120.
Experiment [15] concerns the target T5, PACE4, P29122.
In experiment [16] the target is T1, PC2, P16519.
In experiment [17] the target is T2, Furin (recombinant, truncated) (mouse), ….
For experiment [18], the target named is T5, PACE4, P29122.
Experiment [19] concerns the target T4, PC1, P29120.
Experiment [20] addresses T2, Furin (recombinant, truncated) (mouse), ….
Experiment [21] deals with T5, PACE4, P29122.
The target in experiment [22] is T4, PC1, P29120.
The target of experiment [23] is T2, Furin (recombinant, truncated) (mouse), ….

Read-outs that look alike come from different tables or passages of the source. No end group written: not given here.

As usually defined, the Ki is the equilibrium dissociation constant of an inhibitor or competing ligand from its target. For the molecule Ac-MRKRRR-NH2 [Ac-MRKRRR-NH2], the results for the Ki in experiment [1] and in [2] were 1500 µM and 2.3 µM, respectively.
Take Ac-HHKRRR-NH2 [Ac-HHKRRR-NH2]: the Ki in experiment [3] came out at 13.2 µM; in experiment [4], 235 µM.
As to QQVAKRRTKR [Furin propeptide fragment], the Ki in experiment [5] was determined as 0.5 µM.
On to LLRVKR, for which the Ki in [6] came out at 0.42 µM; in [7], 3.7 µM.
Consider RRRRRR [Hexa-L-arginine], for which the Ki in experiment [8] amounted to 3.9 µM; in [9], 0.114 µM; in experiment [10], 0.52 µM.
For the molecule LLRVKR-NH2 [LLRVKR-NH2], the results for the Ki in experiment [11] and in [12] were 0.8 µM and 2.3 µM, respectively.
Consider RRRRR [Penta-L-arginine], for which the inhibition constant Ki in [13] is 0.99 µM; in [14], 14 µM; in experiment [15] it was 0.98 µM.
In the case of Ac-MHKRRR-NH2 [Ac-MHKRRR-NH2], the Ki in experiment [16] amounted to 216 µM; in experiment [17] it was 10.3 µM.
With RRRRRRR [Hepta-L-arginine], the Ki in [18] is 0.24 µM; in experiment [19] it was 5.2 µM; in [20], 0.068 µM.
As for RRRR [Tetra-L-arginine], the values for the Ki in experiment [21], in experiment [22] and in experiment [23] were greater than 200 µM, greater than 200 µM and 6.4 µM, respectively.

Values taken from patent US7033991.
